Experiment: yeast display, Sf9 membrane polyspecificity reagent, FACS + sequencing; frameworks hold sequencing errors
How it was run: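 Galactose-induced (36–48 hours) yeast carrying a synthetic nanobody display library were exposed to 10% biotinylated, detergent-solubilized Sf9 membrane reagent at 4 °C for 1 hour. FACS followed streptavidin microbead enrichment, using low and high (top ~1%) gates for expression (anti-HA) and reagent binding (streptavidin). Colony PCR, MiSeq 2 × 250 sequencing and CDR-length filtering followed. Labels for polyreactivity reflect the gate of origin.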

Row | Sequence | polyreactivity (PSR sort gate)
1 | QVQLVESGGGLVQAGGSLRLSCDASGSIIISYDMGWYRQAPGKERELVAAIRSRVGSTYYSDSVKGRFTISRDNAKNTVYLQMNSLKPEDTAVYYCAADWVWADFDYWGQGTNVTVSS | low polyreactivity
2 | QVQLVESGGGLVQAGGSLRLSCDASGSIISYYTMGWYRQAPWKERELVAAISLTGGSTYYADSVKGRFTISRDNAKNTVYLQMNSLKPEDTAVYYCIAVRYASPYGYWGQGTLVTVSS | high polyreactivity
3 | QVQLVESGGGLVQAGGSLRLSCDASGSTFLTNTMGWYRQAPGKERELVAAISSGDSTYYADSVKGRFTISRDNAKNTVYLQLNSLKPEVTAVYYCARDGGWRNVPRDYWGQGTQVTVSS | low polyreactivity
4 | QVQLVESGGGLVQAGGSLRLSCDASGSTFPVNAMGWYRQAPGKERELVAAISSRGSSTYYADSVKGRFTISRDNAKNTVYLQMNSLKPEDTAVYYCAAPQRYPRFYYWGQGTQVTVSS | high polyreactivity
5 | QVQLVESGGGLVQAGGSLRLSCDASGSTFRANAMGWYRQAPGKERELVAAISWSGGRTYYADSVKGRFTISRDNAKNTVYLQMNSLKPEYTAVYYCAAPKLTSYDSWGQGTQVTVSS | high polyreactivity
6 | QVQLVESGGGLVQAGGSLRLSCDASGSTFVGYTMGWYRQAPGKERELVAAITWRGGITYYADSVKGLFTISRDNAKNTVYLQMKSLKPEDTAVYYCAGARYRHGRSGTYDVTGEYWGQGTQVTVSS | high polyreactivity
7 | QVQLVESGGGLVQAGGSLRLSCDASGSTFYPNAMGWYRQPPGKERELVAAITDSVCTTNYADSVKGRFTISRDNAKNTVYLQMNSLKPEDTAVYYCAKVKYYWNGYRYYYWGQGTQVTVSS | low polyreactivity
8 | QVQLVESGGGLVQAGGSLRLSCDASGSTFYYNAMGWYRQAPGKERELVADISRGGSTYYADSVKGRFTISRDNAKNTVYLQMNSLKPEDTAVYDCAAQTYLLSQWWWFDIDYGYWGQGTQVTVSS | low polyreactivity
9 | QVQLVESGGGLVQAGGSLRLSCDASGTLSPYAMGWYRQAPGKERELVAVITSNTGRTYADSVKGRFTISRYNSKNTVYLQKNTLNPQDTAFFYCYWGQGTQVTVTS | low polyreactivity
10 | QVQLVESGGGLVQAGGSLRLSCEASGSTFLRNAMGWYRQAPGKKGSWVATISYAGDSTYYADSVKGRFTLSRDNAKNTVYLQMNSLKPEDTAVYYCAASYSLTFWDKDDYWGQGTQVTVSS | low polyreactivity
11 | QVQLVESGGGLVQAGGSLRLSCGASGFIFVRYAMGWYRQAPGKERELVAAITKGGGRTYYADSVKGRFTISRDNAKNTVYLQMNSLKPEDTAVYYCATGGAHGRERDYGGQGTQVTVSS | high polyreactivity
12 | QVQLVESGGGLVQAGGSLRLSCGASGFTFSGNVMGWYRQAPGKEREFVAAITSRGGSSYYADSVKGRFTISRDNAKNTVYLQMNSLKPEDTAVYYCNRRRWYFFSLDYWGQGTQVTVSS | high polyreactivity
13 | QVQLVESGGGLVQAGGSLRLSCGASGLTFPLYAMGWYRQAPGKERELVAAITFSSGSTRYADSVKGRFTISRDNAKNTGSFQMNSLKPEDTALYYCAAVWYTYRTGPWYDYWGQGTQVTVSS | high polyreactivity
14 | QVQLVESGGGLVQAGGSLRLSCGASGNTFYPNAMGWYRQAPGKERELVAAITTSGVTTYYADSVKGSFTISRDNAKNTVYLQINSLKPEDTAVYYCAAYWSRDKYYYWGQGTQVTVSS | low polyreactivity
15 | QVQLVESGGGLVQAGGSLRLSCGASGRIFGRYAMGWYRQAPAKERELVAVITFSGGDTFYADSVKGRFTISRDNAKNTVYLQMNSLKPEDTAVYYCAKSQGFETYRNVSIFGYWGQGTQVTVSS | low polyreactivity
16 | QVQLVESGGGLVQAGGSLRLSCGASGRNFPGNAMGWYRQAPGKEREFVAVITSRTGNTYYADSVKGRFTISRDTAKNTVYLQMNSLKPEDSAVYYCNGEQYIWSEDYWGQGTQVSVSS | low polyreactivity
17 | QVQLVESGGGLVQAGGSLRLSCGASGRTFSYYPMGWYRQAPGKERELVAAITSSGGRTYYADSVKGRFTISRDNAKNTVYLQMNSLKPEDTAVYYCAKELVKRYYWGQGTQVTVSS | high polyreactivity

Source: the nanobody polyreactivity screen of Harvey et al. (2022)
